From US20180346571A1

Assays:
[1] = target: human PD-L1 ECD-CD4TM-GFP expressed on HEK-293 / HEK-293T cells (human) (UniProt Q9NZQ7); experiment: FACS on HEK-293 cells transfected with hPD-L1-GFP, secondary antibody alone (negative control)
[2] = target: cynomolgus PD-L1-CD4TM-GFP expressed on HEK-293 cells (cynomolgus) (UniProt G7PSE7); experiment: FACS on HEK-293 cells transfected with cyno PD-L1-GFP, secondary antibody alone (negative control)
[3] = target: mouse PD-L1-CD4TM-GFP expressed on HEK-293 cells (mouse) (UniProt Q9EP73); experiment: FACS on HEK-293 cells transfected with mPD-L1-GFP, secondary antibody alone (negative control)
[4] = target: human PD-L1 ECD-CD4TM-GFP expressed on HEK-293 / HEK-293T cells (human) (UniProt Q9NZQ7); experiment: FACS on HEK-293T cells expressing hPD-L1-GFP, control panel headed anti-mFc-PE in the row 'No antibody' (taken as the control without PD-1-Fc of paragraph 289)

Sequence of UniProt Q9NZQ7 (Q9NZQ7 19-238): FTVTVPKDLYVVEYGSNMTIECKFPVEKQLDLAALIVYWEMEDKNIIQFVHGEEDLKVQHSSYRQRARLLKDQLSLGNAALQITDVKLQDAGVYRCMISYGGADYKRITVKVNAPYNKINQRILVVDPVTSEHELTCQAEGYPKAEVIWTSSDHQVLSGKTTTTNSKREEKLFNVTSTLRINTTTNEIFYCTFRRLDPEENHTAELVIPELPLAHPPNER
Sequence of UniProt Q9EP73 (Q9EP73 19-239): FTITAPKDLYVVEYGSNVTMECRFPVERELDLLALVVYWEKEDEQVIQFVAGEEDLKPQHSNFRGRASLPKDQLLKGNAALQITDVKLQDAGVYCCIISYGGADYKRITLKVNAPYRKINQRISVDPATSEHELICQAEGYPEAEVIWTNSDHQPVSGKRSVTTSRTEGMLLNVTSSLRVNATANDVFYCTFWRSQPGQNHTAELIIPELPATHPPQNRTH
Sequence of UniProt G7PSE7 (G7PSE7 entry or part of it limits assumed): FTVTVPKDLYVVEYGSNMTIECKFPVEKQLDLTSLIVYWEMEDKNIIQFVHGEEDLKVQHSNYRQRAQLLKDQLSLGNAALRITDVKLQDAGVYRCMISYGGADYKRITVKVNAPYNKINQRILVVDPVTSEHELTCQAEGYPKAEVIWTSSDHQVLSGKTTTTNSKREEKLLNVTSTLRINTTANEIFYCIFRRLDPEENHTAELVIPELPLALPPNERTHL

MFI [1]	MFI [2]	MFI [3]	MFI [4]	Substance
3	3	3	–	Only anti-hFc Ab (antibody)
6	–	–	–	Only anti-mFc Ab (antibody)
–	–	–	10	anti-mFc-PE (antibody)
